The supplement of paper PMC10899765

Each sequence was assayed on MCF10A (assay: percent viability (nuclei count relative to siNT); higher = more viable cells). Settings: 20 nM; 72 h.
Method: (§1)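 After 72 h, cells were fixed and stained with Hoechst and anti-fibrillarin, and nucleoli per nucleus were counted with CellProfiler. Values are plate-adjusted percent effect for the one-nucleolus and 5+ nucleoli phenotypes, normalised to siNT (0%) and to the positive controls siNOL11 or siKIF11 (100%), as the mean of biological triplicates. Percent viability is the nuclei count relative to siNT.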

Sequence	percent viability
CAAUUCUCAAAGGAGCCUCCC [hsa-miR-5571-5p]	32.7%
CCUGCAGCGACUUGAUGGCUUCC [hsa-miR-1184]	70.1%
UCCCUCUCCCACCCCUUGCAG [hsa-miR-6892-3p]	52.2%
UUAACUCCUUUCACACCCAUGG [hsa-miR-4764-3p]	91.4%
ACUCUUUCCCUGUUGCACUAC [hsa-miR-130b-5p]	54.3%
AGGGGCUGGCUUUCCUCUGGUC [hsa-miR-185-3p]	22.6%
UUGGACAGAAAACACGCAGGAA [hsa-miR-4520a-3p]	59.1%
CCUGUGGGCCACCUAGUCACCAA [hsa-miR-134-3p]	44.8%
GGGCUAGGGCCUGCUGCCCCC [hsa-miR-6069]	54.3%
UCCCUUCUUCCUGGGCCCUCA [hsa-miR-5088-3p]	59.2%
UCCGUACAAACUCUGCUGUG [hsa-miR-3678-5p]	64.4%
CGGGGCGGCAGGGGCCUC [hsa-miR-3196]	13.7%
GCUGAACUGGGCUGAGCUGGGC [hsa-miR-4539]	87%
CAAAAACUGCAUUACUUUUGC [hsa-miR-548j-3p]	118%
ACUGGGCAGGGCUGUGGUGAGU [hsa-miR-6860]	50.7%
CACCUUGCGCUACUCAGGUCUG [hsa-miR-3200-3p]	24.5%
CUGUUGCCACUAACCUCAACCU [hsa-miR-744-3p]	56%
UGUGAGGUUGGCAUUGUUGUCU [hsa-miR-1294]	28.9%
UUGUACAUGGUAGGCUUUCAUU [hsa-miR-493-5p]	81.7%
CACACAGGAAAAGCGGGGCCCUG [hsa-miR-6768-5p]	55.7%
CGGCGCCCGUGUCUCCUCCAG [hsa-miR-6789-3p]	59.9%
UCUUCACCUGCCUCUGCCUGCA [hsa-miR-6754-3p]	71.5%
UGCACAUGGCAACCUAGCUCCCA [hsa-miR-5589-3p]	45.2%

Sequence	percent viability
UCUCGCAUCAGGAGGCAAGG [hsa-miR-6872-5p]	56%
ACUGGAUUUGGAGCCAGAA [hsa-miR-378j]	42.3%
UCCUGUACUGAGCUGCCCCGAG [hsa-miR-486-5p]	41.3%
GUCACUGAUGUCUGUAGCUGAG [hsa-miR-4420]	87.4%
UGACACGGAGGGUGGCUUGGGAA [hsa-miR-4462]	82.7%
GUGUGGCCGGCAGGCGGGUGG [hsa-miR-7108-5p]	55.9%
UGAGACAGGCUUAUGCUGCUAU [hsa-miR-4524a-3p]	21.6%
GGCGGGUGCGGGGGUGG [hsa-miR-3656]	148%
AGUAUUCUGUACCAGGGAAGGU [hsa-miR-630]	68.7%
CAGGCAGGUGUAGGGUGGAGC [hsa-miR-6893-5p]	31.2%
UGGAAGGGAGAAGAGCUUUAAU [hsa-miR-3202]	21.6%
UGUGUCCCAUUAUUGGUGAUU [hsa-miR-3657]	46.6%
AUACCUCAUCUAGAAUGCUGUA [hsa-miR-4777-3p]	51.3%
CGCGGGCGCUCCUGGCCGCCGCC [hsa-miR-4767]	58.8%
AUACCCAUAGCUUAGCUCCCA [hsa-miR-5591-3p]	16.2%
UAGCACCAUCUGAAAUCGGUUA [hsa-miR-29a-3p]	65.1%
UCAAUAAAUGUCUGUUGAAUU [hsa-miR-95-5p]	101%
UUGCACUCUGGCCUUCUCCCAGG [hsa-miR-7703]	25%
UGGGCGAGGGGUGGGCUCUCAGAG [hsa-miR-4649-5p]	45.5%
GGCCUUGUUCCUGUCCCCA [hsa-miR-4312]	22.7%
AUGUAUAAAUGUAUACACAC [hsa-miR-568]	178%
ACCGUGGCUUUCGAUUGUUACU [hsa-miR-132-5p]	68.8%

These sequences were tested on MCF10A (assay: 5+ nucleoli phenotype percent effect (relative to siNT 0% and siKIF11 100%); higher = more cells with five or more nucleoli). Settings: 20 nM; 72 h.
Method: as §1

Sequence	5+ nucleoli phenotype percent effect
CAAUUCUCAAAGGAGCCUCCC [hsa-miR-5571-5p]	-26.3%
CCUGCAGCGACUUGAUGGCUUCC [hsa-miR-1184]	-8.51%
UCCCUCUCCCACCCCUUGCAG [hsa-miR-6892-3p]	42.4%
UUAACUCCUUUCACACCCAUGG [hsa-miR-4764-3p]	15.3%
ACUCUUUCCCUGUUGCACUAC [hsa-miR-130b-5p]	16.1%
AGGGGCUGGCUUUCCUCUGGUC [hsa-miR-185-3p]	-3.46%
UUGGACAGAAAACACGCAGGAA [hsa-miR-4520a-3p]	-25%
CCUGUGGGCCACCUAGUCACCAA [hsa-miR-134-3p]	-15.2%
GGGCUAGGGCCUGCUGCCCCC [hsa-miR-6069]	21.6%
UCCCUUCUUCCUGGGCCCUCA [hsa-miR-5088-3p]	70.3%
UCCGUACAAACUCUGCUGUG [hsa-miR-3678-5p]	-49.2%
CGGGGCGGCAGGGGCCUC [hsa-miR-3196]	-24.6%
GCUGAACUGGGCUGAGCUGGGC [hsa-miR-4539]	-5.15%
CAAAAACUGCAUUACUUUUGC [hsa-miR-548j-3p]	32.5%
ACUGGGCAGGGCUGUGGUGAGU [hsa-miR-6860]	-5.42%
CACCUUGCGCUACUCAGGUCUG [hsa-miR-3200-3p]	-0.139%
CUGUUGCCACUAACCUCAACCU [hsa-miR-744-3p]	-44.1%
UGUGAGGUUGGCAUUGUUGUCU [hsa-miR-1294]	-10.7%
UUGUACAUGGUAGGCUUUCAUU [hsa-miR-493-5p]	-9.79%
CACACAGGAAAAGCGGGGCCCUG [hsa-miR-6768-5p]	24.4%
CGGCGCCCGUGUCUCCUCCAG [hsa-miR-6789-3p]	32.6%
UCUUCACCUGCCUCUGCCUGCA [hsa-miR-6754-3p]	15.2%
UGCACAUGGCAACCUAGCUCCCA [hsa-miR-5589-3p]	-1.16%

Sequence	5+ nucleoli phenotype percent effect
UCUCGCAUCAGGAGGCAAGG [hsa-miR-6872-5p]	24.9%
ACUGGAUUUGGAGCCAGAA [hsa-miR-378j]	-1.17%
UCCUGUACUGAGCUGCCCCGAG [hsa-miR-486-5p]	1.79%
GUCACUGAUGUCUGUAGCUGAG [hsa-miR-4420]	1.76%
UGACACGGAGGGUGGCUUGGGAA [hsa-miR-4462]	14.9%
GUGUGGCCGGCAGGCGGGUGG [hsa-miR-7108-5p]	6.78%
UGAGACAGGCUUAUGCUGCUAU [hsa-miR-4524a-3p]	8.73%
GGCGGGUGCGGGGGUGG [hsa-miR-3656]	37.2%
AGUAUUCUGUACCAGGGAAGGU [hsa-miR-630]	49.7%
CAGGCAGGUGUAGGGUGGAGC [hsa-miR-6893-5p]	-6.16%
UGGAAGGGAGAAGAGCUUUAAU [hsa-miR-3202]	-35.3%
UGUGUCCCAUUAUUGGUGAUU [hsa-miR-3657]	-31.6%
AUACCUCAUCUAGAAUGCUGUA [hsa-miR-4777-3p]	-19.6%
CGCGGGCGCUCCUGGCCGCCGCC [hsa-miR-4767]	26.9%
AUACCCAUAGCUUAGCUCCCA [hsa-miR-5591-3p]	-19.5%
UAGCACCAUCUGAAAUCGGUUA [hsa-miR-29a-3p]	46.9%
UCAAUAAAUGUCUGUUGAAUU [hsa-miR-95-5p]	26.3%
UUGCACUCUGGCCUUCUCCCAGG [hsa-miR-7703]	-11.1%
UGGGCGAGGGGUGGGCUCUCAGAG [hsa-miR-4649-5p]	19.2%
GGCCUUGUUCCUGUCCCCA [hsa-miR-4312]	-25.8%
AUGUAUAAAUGUAUACACAC [hsa-miR-568]	26.1%
ACCGUGGCUUUCGAUUGUUACU [hsa-miR-132-5p]	-7.44%

The sequences below were run on MCF10A (assay: one-nucleolus phenotype percent effect (relative to siNT 0% and siNOL11 100%); higher = more cells with one nucleolus (ribosome biogenesis inhibition)). Settings: 20 nM; 72 h.
Method: as §1

Sequence	one-nucleolus phenotype percent effect
CAAUUCUCAAAGGAGCCUCCC [hsa-miR-5571-5p]	34%
CCUGCAGCGACUUGAUGGCUUCC [hsa-miR-1184]	4.01%
UCCCUCUCCCACCCCUUGCAG [hsa-miR-6892-3p]	-29%
UUAACUCCUUUCACACCCAUGG [hsa-miR-4764-3p]	-18%
ACUCUUUCCCUGUUGCACUAC [hsa-miR-130b-5p]	-13.5%
AGGGGCUGGCUUUCCUCUGGUC [hsa-miR-185-3p]	49.9%
UUGGACAGAAAACACGCAGGAA [hsa-miR-4520a-3p]	-3.29%
CCUGUGGGCCACCUAGUCACCAA [hsa-miR-134-3p]	8.84%
GGGCUAGGGCCUGCUGCCCCC [hsa-miR-6069]	-4.55%
UCCCUUCUUCCUGGGCCCUCA [hsa-miR-5088-3p]	-36.6%
UCCGUACAAACUCUGCUGUG [hsa-miR-3678-5p]	39.4%
CGGGGCGGCAGGGGCCUC [hsa-miR-3196]	66%
GCUGAACUGGGCUGAGCUGGGC [hsa-miR-4539]	-1.34%
CAAAAACUGCAUUACUUUUGC [hsa-miR-548j-3p]	-29.2%
ACUGGGCAGGGCUGUGGUGAGU [hsa-miR-6860]	-5.92%
CACCUUGCGCUACUCAGGUCUG [hsa-miR-3200-3p]	-8.76%
CUGUUGCCACUAACCUCAACCU [hsa-miR-744-3p]	27.3%
UGUGAGGUUGGCAUUGUUGUCU [hsa-miR-1294]	19%
UUGUACAUGGUAGGCUUUCAUU [hsa-miR-493-5p]	3.68%
CACACAGGAAAAGCGGGGCCCUG [hsa-miR-6768-5p]	-20.7%
CGGCGCCCGUGUCUCCUCCAG [hsa-miR-6789-3p]	-9.93%
UCUUCACCUGCCUCUGCCUGCA [hsa-miR-6754-3p]	-24.7%
UGCACAUGGCAACCUAGCUCCCA [hsa-miR-5589-3p]	6.29%

Sequence	one-nucleolus phenotype percent effect
UCUCGCAUCAGGAGGCAAGG [hsa-miR-6872-5p]	-13%
ACUGGAUUUGGAGCCAGAA [hsa-miR-378j]	-17.6%
UCCUGUACUGAGCUGCCCCGAG [hsa-miR-486-5p]	4.53%
GUCACUGAUGUCUGUAGCUGAG [hsa-miR-4420]	-18.2%
UGACACGGAGGGUGGCUUGGGAA [hsa-miR-4462]	-18.7%
GUGUGGCCGGCAGGCGGGUGG [hsa-miR-7108-5p]	-12.6%
UGAGACAGGCUUAUGCUGCUAU [hsa-miR-4524a-3p]	24.8%
GGCGGGUGCGGGGGUGG [hsa-miR-3656]	-15.8%
AGUAUUCUGUACCAGGGAAGGU [hsa-miR-630]	-15.1%
CAGGCAGGUGUAGGGUGGAGC [hsa-miR-6893-5p]	-3.82%
UGGAAGGGAGAAGAGCUUUAAU [hsa-miR-3202]	62.8%
UGUGUCCCAUUAUUGGUGAUU [hsa-miR-3657]	32.2%
AUACCUCAUCUAGAAUGCUGUA [hsa-miR-4777-3p]	0.874%
CGCGGGCGCUCCUGGCCGCCGCC [hsa-miR-4767]	-12.9%
AUACCCAUAGCUUAGCUCCCA [hsa-miR-5591-3p]	47%
UAGCACCAUCUGAAAUCGGUUA [hsa-miR-29a-3p]	-24%
UCAAUAAAUGUCUGUUGAAUU [hsa-miR-95-5p]	-26.5%
UUGCACUCUGGCCUUCUCCCAGG [hsa-miR-7703]	23%
UGGGCGAGGGGUGGGCUCUCAGAG [hsa-miR-4649-5p]	1.85%
GGCCUUGUUCCUGUCCCCA [hsa-miR-4312]	56%
AUGUAUAAAUGUAUACACAC [hsa-miR-568]	-26.3%
ACCGUGGCUUUCGAUUGUUACU [hsa-miR-132-5p]	-1.09%
